Measurements from IntAct's records for PubMed 19587294.

B1: Tetraspanin-12 (Homo sapiens), O95859 (parent)
chain: MAREDSVKCLRCLLYALNLLFWLMSISVLAVSAWMRDYLNNVLTLTAETRVEEAVILTYFPVVHPVMIAVCCFLIIVGMLGYCGTVKRNLLLLAWYFGSLLVIFCVELACGVWTYEQELMVPVQWSDMVTLKARMTNYGLPRYRWLTHAWNFFQREFKCCGVVYFTDWLEMTEMDWPPDSCCVREFPGCSKQAHQEDLSDLYQEGCGKKMYSFLRGTKQLQVLRFLGISIGVTQILAMILTITLLWALYYDRREPGTDQMMSLKNDNSQHLSCPSVELLKPSLSRIFEHTSMANSFNTHFEMEEL

Variants of: B1
Settings: with ada10_human ADAM10, O14672
Chain of ada10_human ADAM10, O14672 (O14672 whole entry): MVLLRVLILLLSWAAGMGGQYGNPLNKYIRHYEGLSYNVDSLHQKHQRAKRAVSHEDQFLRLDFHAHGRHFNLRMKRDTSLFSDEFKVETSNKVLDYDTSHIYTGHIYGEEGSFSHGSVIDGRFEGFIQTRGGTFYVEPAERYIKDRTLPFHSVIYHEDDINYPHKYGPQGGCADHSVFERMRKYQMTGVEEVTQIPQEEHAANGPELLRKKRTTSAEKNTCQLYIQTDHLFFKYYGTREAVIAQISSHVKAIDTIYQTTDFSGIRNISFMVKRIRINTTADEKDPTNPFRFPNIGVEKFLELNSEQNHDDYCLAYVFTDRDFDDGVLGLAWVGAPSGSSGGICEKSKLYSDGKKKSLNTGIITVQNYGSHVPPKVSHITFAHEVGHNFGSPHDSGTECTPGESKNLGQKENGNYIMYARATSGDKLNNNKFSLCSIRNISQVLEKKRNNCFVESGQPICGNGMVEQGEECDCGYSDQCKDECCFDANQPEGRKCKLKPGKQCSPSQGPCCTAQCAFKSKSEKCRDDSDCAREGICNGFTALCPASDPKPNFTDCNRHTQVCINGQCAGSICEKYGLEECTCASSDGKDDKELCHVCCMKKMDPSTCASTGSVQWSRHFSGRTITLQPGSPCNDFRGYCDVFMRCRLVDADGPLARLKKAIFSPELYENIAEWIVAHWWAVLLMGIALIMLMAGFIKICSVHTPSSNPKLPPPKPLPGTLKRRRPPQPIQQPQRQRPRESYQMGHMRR

Variant	effect of a mutation on the interaction
MAREDSVKSLRSLLYALNLLFWLMSISVLAVSAWMRDYLNNVLTLTAETRVEEAVILTYFPVVHPVMIAVCCFLIIVGMLGYSGTVKRNLLLLAWYFGSLLVIFCVELACGVWTYEQELMVPVQWSDMVTLKARMTNYGLPRYRWLTHAWNFFQREFKCCGVVYFTDWLEMTEMDWPPDSCCVREFPGCSKQAHQEDLSDLYQEGCGKKMYSFLRGTKQLQVLRFLGISIGVTQILAMILTITLLWALYYDRREPGTDQMMSLKNDNSQHLSCPSVELLKPSLSRIFEHTSMANSFNTHFEMEEL [C9S;C12S;C83S]	disrupting interaction strength
MAREDSVKCLRCLLYALNLLFWLMSISVLAVSAWMRDYLNNVLTLTAETRVEEAVILTYFPVVHPVMIAVCCFLIIVGMLGYCGTVKENLLLLAWYFGSLLVIFCVELACGVWTYEQELMVPVQWSDMVTLKARMTNYGLPRYRWLTHAWNFFQREFKCCGVVYFTDWLEMTEMDWPPDSCCVREFPGCSKQAHQEDLSDLYQEGCGKKMYSFLRGTKQLQVLRFLGISIGVTQILAMILTITLLWALYYDRREPGTDQMMSLKNDNSQHLSCPSVELLKPSLSRIFEHTSMANSFNTHFEMEEL [R88E]	decreasing interaction strength
